Source: US20210395381A1 (OSSIANIX, published 2021)
Positions count from the first letter of the chain named.

B1: Clone 54 (VNAR)
VNAR: ARVDQTPQTITKETGESLTINCVLRDSNCALPITYWYRKKSGSTNEESISKGGRYVETVNSGSKSFSLRINDLTVKDSGTYRCNVGAQYCDREISDVYGDGTAVTVNA
notes: VNAR on phage
B2: Clone 36 (VNAR)
VNAR: ARVDQTPQTITKETGESLTINCVLRDSNCALPSTYWYRKKSGSTNEESISKGGRYVETVNSGSKSFSLRINDLVVEDSGTYRCNVHCYGGDLHQLDVYGGGTAVTVNA
notes: VNAR on phage
B3: Clone 59 (VNAR)
VNAR: ARVDQTPQTITKETGESLTINCVLRDSNCALPSTYWYRKKSGSTNEESISKGGRYVETVNSGSKSFSLRINDLTVEDSGTYRCNVSLQFCCLSFDVYGGGTAVTVNA
notes: VNAR on phage
B4: Clone 38 (VNAR)
VNAR: B3 VNAR with R69K, S86R, L87I, Q88I, F89Q, L92V, F94Q, A102V
notes: VNAR on phage
B5: Clone 50 (VNAR)
VNAR: B3 VNAR with G42D, E76K, S86L, L87I, F89C, C91S, L92P, S93T, F94C
notes: VNAR on phage
B6: Clone 45 (VNAR)
VNAR: AVDQTPQTITKETGESLTINCVLRDSNCALSNLYWYRKKSDSTNEESISKGGRYVETVNSGSKSFSLRINDLTVEDSGTYRCNVCWWFSSRCTTCDVYGDGTAVTVNA
notes: VNAR on phage
B7: Clone 35 (VNAR)
VNAR: ARVDQTPQTITKETGESLTINCVLRDSNCALSSTYWYRKKSDSTNEESISKGGRYVETVNSGSKSFSLRINDLTVKDSGTYRCNVSEDLQAICCWNDVYGDGTAVTVNA
notes: VNAR on phage
B8: Clone 37 (VNAR)
VNAR: B7 VNAR
notes: VNAR on phage
B9: Clone 52 (VNAR)
VNAR: PRVDQTPQTITKETGESLTINCVLRDSNCALSSTYWYRKKSGSTNEENISKGGRYVETVNSGSKSFSLRINDLTVEDSGTYRCNVAFFACQYKNDVYGGGTVVTVNA
notes: VNAR on phage
B10: Clone 55 (VNAR)
VNAR: PRVDQTPQTITKETGESLTINCVLRDSNCALSSTLWYRTKSGSRNEESISKGGRYVETVNSGSKSFSLRINDLTVEDSGTYRCNVWCLTLGCSGKWDVYGGGTAVTVNA
notes: VNAR on phage
B11: Clone 39 (VNAR)
VNAR: ARVDQTPQTITKETGESLTINCVLRDSNCELSSTYWYRKKSGSTNEESISLGGRYVETVNSGSKSFSLRINDLTVEDSGTYRCNVQSAMLMLCLSRFDVYGGGTAVTVNA
notes: VNAR on phage
B12: Clone 42 (VNAR)
VNAR: ARVDQTPQTITKETGESLTINCVLRDSNCELSSTYWYRKKSGSTNEARISKGGRYVETVNSGSKSFSLRINDLTVEDSGTYRCKVRKALVQSQSCCQPLHRDVYGDGTAVTVNA
notes: VNAR on phage
B13: Clone 60 (VNAR)
VNAR: ARVDQTPQTITKETGESLTINCVLRDSNCDLSRTYWYRKKSGSTNEESISKGGRYVETVNSGSKSFSLRINDLTVEDSGTYRCNVYNPGNGWAMYDVYGGGTAVTVNA
notes: VNAR on phage
B14: Clone 1 (VNAR)
VNAR: ARVDQTPQTITKETGESLTINCVLRDNNCALSTTYWYRKKSGSTNEESISLGGRYVETVNSGSKSFSLRINDLTVEDSGTYRCNVSDVVSCDDGWNWLDVYGGGTAVTVNA
notes: VNAR on phage
B15: Clone 58 (VNAR)
VNAR: ARVDQTPQTITKETGESLTINCVLRDSNCELSSTYWYRKKSGSTNEARISKGGRYVETVNSGSKSFSLRINDLTVEDSGTYRCNVGFSQSWGNSVGIVDVYGGGTAVTVNE
notes: VNAR on phage
B16: Clone 33 (VNAR)
VNAR: PRVDQTPQTITKETGESLTINCVLRDSNCALSNLYWYRKKSGSTNEESISKGGRYVETVNSGSKSFSLRINDLTVEDSGTYRCNVLVGMLSGCGFQRGDVYGGGTAVTVNA
notes: VNAR on phage
B17: Clone 47 (VNAR)
VNAR: PRVDQTPQTITKETGESLTINCVLRDSNCALPSTYWYRKKSGSTNEENISKGGRYVETVNSGSKSFSLKINDLTVEDSGTYRCNVIINPLSCYYLQLQDVYGGGTAVTVNA
notes: VNAR on phage
B18: Clone 44 (VNAR)
VNAR: ARVDQTPRSVTKETGESLTINCVLRDASYELGSTCWYRKKSGSTNEESISKGGRYVETVNSGSKSFSLRINDLTVEDGGTYRCGAGSVQRSTSQCDRLWSRCWRTRFKIAACGDGTAVTVNA
notes: VNAR on phage
B19: Clone 49 (VNAR)
VNAR: ARVDQTPQTITKETGESLTINCVLRDSNCALPSTYWYRKKSGSTNEESISKGGRYVETVNSGSKSFSLKINDLTVEDSGTYRCNVQGRAAYSGLVCDVYGGGTAVTVNA
notes: VNAR on phage
B20: Clone 57 (VNAR)
VNAR: B19 VNAR with K69R, Q86R, R88F, A89K, A90Q, Y91C, S92Y, G93D, V95R, C96L
notes: VNAR on phage
B21: Clone 48 (VNAR)
VNAR: ARVDQTPRSVTKETGESLTINCVLRDASYELGSTCWYRKKSGSTNEESISKGGRYVETVNSGSKSFSLRINDLTVEDGGTYRCGASFMLSHPGGCDSCVIMCQTRRQGVAACGDGTAVTVNA
notes: VNAR on phage
B22: Clone 32 (VNAR)
VNAR: ARVDQTPQTITKETGESLTINCVLRDSNCALSSTYWYRKKSGSTNEENISKGGRYVETVNSGSKSFSLRINDLTVEDSGTYRCNVQDMLTPNDGQLWDVYGDGTAVTVNA
notes: VNAR on phage
B23: Clone 53 (VNAR)
VNAR: ARVDQTPQTITKETGESLTINCVLRDSNCALSSTYWYRKKSDSTNEESISKGGRYVETVNSGSKSFSLRINDLTVKDSGTYRCNVYLQDRPVCSPFNYDVYGGGTAVTVNA
notes: VNAR on phage
B24: Clone 46 (VNAR)
VNAR: ARVDQTPRVTKETGESLTINCVLRDASYELGSTCWYRKKSGSTNEESISKGGRYVETVNSGSKSFSLRINDLTVEDGGTYRCGASGSQGQVYRCDRLTLCCLQMQWQVAACGDGTAVTVNA
notes: VNAR on phage
B25: Clone 41 (VNAR)
VNAR: ARVDQTPQTITKETGESLTINCVLRDSNCALSNLYWYRKKSGSTNEESISLGGRYVETVNSGSKSFSLRINDLTVEDSGTYRCKVTCEVALQPYYGQEPTQDVYGGGTVVTVNA
notes: VNAR on phage
B26: Clone 56 (VNAR)
VNAR: ARVDQTPQTITKETGESLTINCVLRDSNCALSSTYWYRKKSDSTNEESISKGGRYVETVNSGSKSFSLRINDLVVEDSGTYRCNVQSKEKLHCQVVVDVYGGGTAVTVNA
notes: VNAR on phage
B27: Clone 40 (VNAR)
VNAR: ARVDQTPQTITKETGESLTINCVLRDSNCALSSTYWYRKKSGSTNEESISKGGRYVETVNSGSKSFSLRINDLTVEDSGTYRCKVVQFEKDCQGLLRQTNDVYGGGTVVTVNA
notes: VNAR on phage
B28: Clone 34 (VNAR)
VNAR: PRVDQTPQTITKETGESLTINCVLRDSNCALSSTYWYRKKSGSTNEESISKGGRYVETVNSGSKSFSLRINDLTVEDSGTYRCNVSSNAHCDGRRRDVYGGGTAVTVNA
notes: VNAR on phage
B29: Clone 51 (VNAR)
VNAR: ARVDQTPQTITKETGESLTINCVLRDSNCALSSTLWYRTKSGSRNEESISKGGRYVETVNSGSKSFSLRINDLVVEDSGTYRCKVSHSGLCQYCHDLEDDVYGDGTAVTVNA
notes: VNAR on phage
B30: Clone 10 (VNAR)
VNAR: ARVDQTPQTITKETGESLTINCVLRDSNCALSNLYWYRKKSGSTNEESISLGGRYVETVNSGSKSFSLRINDLTVEDSGTYRCNVVQYPTAKCRQVDVYGGGTAVTVNA
notes: VNAR on phage
B31: Clone 8.147 (VNAR)
VNAR: ARVDQTPQTITKETGESLTINCVLRDSNCALPSTYWYRKKSGSTNEESISKGGRYVETVNSGSKSFSLRINDLTVEDSGTYRCKVIAQLSSILRGCEGDKHDVYGDGTAVTVNA
notes: VNAR on phage; Clone 8 framework
B32: Clone 8.148 (VNAR)
VNAR: B31 VNAR with E97N, G98Y, D99E, K100H
notes: as for B31

What follows are binders tested against T1, recombinant mouse TfR-1 (mouse, UniProt Q62351 89-763) (assay: phage ELISA).
T1 construct: Bought recombinant protein; also called mTfR1
Method: (§1) After the third round of selection, instead of pooling bacterial colonies, individual phagemid clones were grown in 1 ml of 2TY medium containing glucose and ampicillin in 96-well blocks and used to rescue the phages. After an overnight culturing, bacteria were spun down and an aliquot of the phage supernatant was sent for Sanger sequencing (Genewiz); VNAR CDR3 sequences were identified using BioEdit (a sequence alignment editor). Another aliquot was blocked with 2.5% milk for phage ELISAs. High-binding ELISA plates (Greiner) were coated with 1 μg/ml of recombinant human or mouse TfR-1. The plates were then blocked with 2.5% milk in PBST. Blocked phages were added to the blocked plates and the VNAR-phage clones binding to the antigens were detected with HRP-labelled anti-M13 coat protein antibodies (Sino Biological), and chromogenic TMB substrate (KLM)
T1 sequence (Q62351 89-763 limits assumed): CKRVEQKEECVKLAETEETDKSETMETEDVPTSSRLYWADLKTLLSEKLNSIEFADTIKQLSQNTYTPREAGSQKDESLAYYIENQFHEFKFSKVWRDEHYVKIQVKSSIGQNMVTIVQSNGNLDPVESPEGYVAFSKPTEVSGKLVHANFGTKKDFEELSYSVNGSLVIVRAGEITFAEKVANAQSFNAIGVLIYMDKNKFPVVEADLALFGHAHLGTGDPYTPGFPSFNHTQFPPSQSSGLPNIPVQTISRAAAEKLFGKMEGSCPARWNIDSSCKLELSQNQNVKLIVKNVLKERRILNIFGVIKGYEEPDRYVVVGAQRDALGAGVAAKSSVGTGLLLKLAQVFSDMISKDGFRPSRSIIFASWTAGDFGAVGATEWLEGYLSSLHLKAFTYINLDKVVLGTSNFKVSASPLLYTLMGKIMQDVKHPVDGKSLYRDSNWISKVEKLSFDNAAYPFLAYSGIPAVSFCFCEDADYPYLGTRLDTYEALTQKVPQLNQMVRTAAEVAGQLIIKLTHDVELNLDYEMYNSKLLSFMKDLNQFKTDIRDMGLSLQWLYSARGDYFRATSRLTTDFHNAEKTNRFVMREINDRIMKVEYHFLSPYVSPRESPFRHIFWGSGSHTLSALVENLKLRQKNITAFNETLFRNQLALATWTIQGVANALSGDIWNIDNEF

Does B1 bind?
Result: no binding

Does B2 bind?
Result: no binding

Does B3 bind?
Result: no binding

Does B4 bind?
Result: no binding

Does B5 bind?
Result: no binding

Does B6 bind?
Result: no binding

Does B7 bind?
Result: no binding

Does B8 bind?
Result: no binding

Does B9 bind?
Result: no binding

Does B10 bind?
Result: no binding

Does B11 bind?
Result: no binding

Does B12 bind?
Result: no binding

Does B13 bind?
Result: no binding

Does B14 bind?
Result: binds

Does B15 bind?
Result: no binding

Does B16 bind?
Result: no binding

Does B17 bind?
Result: no binding

Does B18 bind?
Result: no binding

Does B19 bind?
Result: no binding

Does B20 bind?
Result: no binding

Does B21 bind?
Result: no binding

Does B22 bind?
Result: no binding

Does B23 bind?
Result: no binding

Does B24 bind?
Result: no binding

Does B25 bind?
Result: no binding

Does B26 bind?
Result: no binding

Does B27 bind?
Result: no binding

Does B28 bind?
Result: no binding

Does B29 bind?
Result: no binding

Does B30 bind?
Result: binds

Each binder was assayed against T2, recombinant human TfR-1 (human, UniProt P02786 89-760) (assay: phage ELISA).
T2 construct: extracellular domain; also called hTfR1; human transferrin receptor-1
Method: as §1
T2 sequence (P02786 89-760): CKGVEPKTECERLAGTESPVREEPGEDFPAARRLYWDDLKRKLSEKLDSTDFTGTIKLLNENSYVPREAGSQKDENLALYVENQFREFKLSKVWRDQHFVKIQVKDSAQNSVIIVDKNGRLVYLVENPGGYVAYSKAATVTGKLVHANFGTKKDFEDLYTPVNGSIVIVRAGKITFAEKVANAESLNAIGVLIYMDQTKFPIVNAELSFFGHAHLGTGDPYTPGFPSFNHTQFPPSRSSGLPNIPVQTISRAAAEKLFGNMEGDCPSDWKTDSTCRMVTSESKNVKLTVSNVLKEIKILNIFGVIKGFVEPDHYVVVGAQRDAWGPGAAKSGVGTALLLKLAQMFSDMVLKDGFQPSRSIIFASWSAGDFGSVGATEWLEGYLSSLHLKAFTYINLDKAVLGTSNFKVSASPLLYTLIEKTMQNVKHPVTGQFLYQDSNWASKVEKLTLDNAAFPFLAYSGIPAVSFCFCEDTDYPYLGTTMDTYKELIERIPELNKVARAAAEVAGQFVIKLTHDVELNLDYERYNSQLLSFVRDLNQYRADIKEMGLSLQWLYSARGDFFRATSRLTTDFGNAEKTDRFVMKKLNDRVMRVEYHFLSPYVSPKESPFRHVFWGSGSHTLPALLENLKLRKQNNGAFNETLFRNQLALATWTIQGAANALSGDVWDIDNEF

Does B14 bind?
Result: binds

Does B30 bind?
Result: binds

The binders below were run against T3, recombinant mouse TfR-1 (mouse, UniProt Q62351 89-763) (assay: phage ELISA).
T3 construct: Recombinant protein coated at 1 ug/ml in the phage ELISA; also called mTfR1; mouse transferrin receptor-1
T3 sequence (Q62351 89-763 limits assumed): as the sequence (Q62351 89-763 limits assumed) above

How did the A450 turn out when B31 was run?
Its A450 is 0.045 A450.

For B32, which A450 is on record?
Its A450 is 0.045 A450.

These binders were tested against T4, recombinant human TfR-1 (human, UniProt P02786 89-760) (assay: phage ELISA).
T4 construct: Recombinant protein coated at 1 ug/ml in the phage ELISA; also called hTfR1; human transferrin receptor-1
T4 sequence (P02786 89-760 limits assumed): as the sequence (P02786 89-760) above

With B31 as the binder, how does the A450 read?
Its A450 is 0.052 A450.

B32 was tested. Which A450 did it give?
Its A450 is 0.049 A450.
